Experimental data taken from patent US10434147B2, “Treatment type 2 diabetes mellitus patients” (Sanofi-Aventis Deutschland GmbH, priority 2015, dated 2019).
Marks after values point to notes of the source that are not given here.

Columns and labels:
[1] = system: Patients with Type 2 Diabetes Insufficiently Controlled with Insulin Glargine with or without Metformin; assay: Treatment-emergent adverse events, 26-week study; assay type: in vivo, human; details: in vivo
Text: (§1) FIG. 6—Graphical study design. ^1 Insulin glargine should be injected subcutaneously once daily at dinner or breakfast time (according to patient's/investigators' preference). […] Meal used for insulin glulisine dosing should remain the same throughout the 26-week treatment period. ^4 Injection of insulin glulisine prior to breakfast, lunch and dinner.
(§2) Co-primary endpoints at 26 weeks were (1) non-inferiority (95% CI upper bound <0.4%) in HbA1c reduction with LIXI vs GLU-1 and (2) for LIXI vs GLU-3, either non-inferiority in HbA1c reduction (2a) OR superiority (one-sided α≤0.025) in body weight change (2b). FPG, PPG, IG dose, composite outcomes, AEs, and hypoglycemia were assessed.

[2] = system: Patients with Type 2 Diabetes Insufficiently Controlled with Insulin Glargine with or without Metformin; assay: HbA1c, randomized open-label active-controlled 3-arm 26-week study (GetGoal-Duo2); assay type: in vivo, human
Text: as §1, §2

[3] = system: Patients with Type 2 Diabetes Insufficiently Controlled with Insulin Glargine with or without Metformin; set-up: species or system human; details: in vivo
Text: Clinical symptoms that are considered to result from a hypoglycemic episode are, e.g., increased sweating, nervousness, asthenia/weakness, tremor, dizziness, increased appetite, palpitations, headache, sleep disorder, confusion, seizures, unconsciousness, coma.
as §2

[4] = Baseline (before IMP), mITT population
[5] = Week 26 (LOCF), mITT population

Question: What does the source list for “Insulin Glulisine TID: insulin glulisine three times daily, added to insulin glargine ± metformin (comparator arm)”?
Answer: Patients with treatment emergent SAE: Penile infection [1]: 0 n (%); Patients with treatment emergent SAE: Renal and urinary disorders (SOC) [1]: 0 n (%); Patients with treatment emergent SAE: Renal failure [1]: 0 n (%); Patients with treatment emergent SAE: Renal failure acute [1]: 0 n (%); Patients with treatment emergent SAE: Septic arthritis staphylococcal [1]: 0 n (%); Patients with treatment emergent SAE: Skin and subcutaneous tissue disorders (SOC) [1]: 1 (0.3%) n (%); Patients with treatment emergent SAE: Skin ulcer haemorrhage [1]: 1 (0.3%) n (%); Patients with treatment emergent SAE: Uterine cancer [1]: 0 n (%); Patients with treatment emergent SAE: Vascular disorders (SOC) [1]: 1 (0.3%) n (%); TEAE leading to permanent treatment discontinuation: Abdominal pain [1]: 0 n (%); TEAE leading to permanent treatment discontinuation: Any class [1]: 3 (1.0%) n (%); TEAE leading to permanent treatment discontinuation: Ascites [1]: 0 n (%); TEAE leading to permanent treatment discontinuation: Blood and lymphatic system disorders (SOC) [1]: 0 n (%); TEAE leading to permanent treatment discontinuation: Blood glucose decreased [1]: 0 n (%); TEAE leading to permanent treatment discontinuation: Cardiac disorders (SOC) [1]: 1 (0.3%) n (%); TEAE leading to permanent treatment discontinuation: Cardiac failure chronic [1]: 1 (0.3%) n (%); TEAE leading to permanent treatment discontinuation: Cough [1]: 0 n (%); TEAE leading to permanent treatment discontinuation: Decreased appetite [1]: 0 n (%); TEAE leading to permanent treatment discontinuation: Dehydration [1]: 0 n (%); TEAE leading to permanent treatment discontinuation: Diabetic bullosis [1]: 0 n (%); TEAE leading to permanent treatment discontinuation: Diarrhoea [1]: 0 n (%); TEAE leading to permanent treatment discontinuation: Dyspepsia [1]: 0 n (%); TEAE leading to permanent treatment discontinuation: Epigastric discomfort [1]: 0 n (%); TEAE leading to permanent treatment discontinuation: Gastric ulcer haemorrhage [1]: 0 n (%); TEAE leading to permanent treatment discontinuation: Gastrointestinal disorders (SOC) [1]: 0 n (%); TEAE leading to permanent treatment discontinuation: Headache [1]: 0 n (%); TEAE leading to permanent treatment discontinuation: Hepatic mass [1]: 0 n (%); TEAE leading to permanent treatment discontinuation: Hepatobiliary disorders (SOC) [1]: 0 n (%); TEAE leading to permanent treatment discontinuation: Hot flush [1]: 0 n (%); TEAE leading to permanent treatment discontinuation: Hypoglycaemia [1]: 0 n (%); TEAE leading to permanent treatment discontinuation: Immune system disorders (SOC) [1]: 1 (0.3%) n (%); TEAE leading to permanent treatment discontinuation: Invasive ductal breast carcinoma [1]: 0 n (%); TEAE leading to permanent treatment discontinuation: Investigations (SOC) [1]: 0 n (%); TEAE leading to permanent treatment discontinuation: Lymphadenopathy [1]: 0 n (%); TEAE leading to permanent treatment discontinuation: Metabolism and nutrition disorders (SOC) [1]: 0 n (%); TEAE leading to permanent treatment discontinuation: Metastases to liver [1]: 0 n (%); TEAE leading to permanent treatment discontinuation: Metastases to peritoneum [1]: 0 n (%); TEAE leading to permanent treatment discontinuation: Nasal congestion [1]: 0 n (%); TEAE leading to permanent treatment discontinuation: Nausea [1]: 0 n (%); TEAE leading to permanent treatment discontinuation: Neoplasms benign, malignant and unspecified (incl cysts and polyps) (SOC) [1]: 0 n (%); TEAE leading to permanent treatment discontinuation: Nervous system disorders (SOC) [1]: 0 n (%); TEAE leading to permanent treatment discontinuation: Pancreatic carcinoma metastatic [1]: 0 n (%); TEAE leading to permanent treatment discontinuation: Renal and urinary disorders (SOC) [1]: 0 n (%); TEAE leading to permanent treatment discontinuation: Renal failure [1]: 0 n (%); TEAE leading to permanent treatment discontinuation: Respiratory, thoracic and mediastinal disorders (SOC) [1]: 0 n (%); TEAE leading to permanent treatment discontinuation: Seasonal allergy [1]: 1 (0.3%) n (%); TEAE leading to permanent treatment discontinuation: Skin and subcutaneous tissue disorders (SOC) [1]: 1 (0.3%) n (%); TEAE leading to permanent treatment discontinuation: Skin ulcer haemorrhage [1]: 1 (0.3%) n (%); TEAE leading to permanent treatment discontinuation: Thrombosis [1]: 0 n (%); TEAE leading to permanent treatment discontinuation: Tremor [1]: 0 n (%); TEAE leading to permanent treatment discontinuation: Vascular disorders (SOC) [1]: 0 n (%); TEAE leading to permanent treatment discontinuation: Vomiting [1]: 0 n (%); Total number of patients with any event adjudicated as pancreatitis by PSAC [1]: 0 n (%); HbA1c change to Week 26, LS Mean difference (SE) of Lixisenatide vs. the labelled insulin glulisine arm ([2]; ANCOVA, mITT population): 0.21 (0.059) %; HbA1c, Change from baseline to Week 26 (LOCF), LS Mean (SE) ([2]; ANCOVA, mITT population): −0.84 (0.053) %; HbA1c, BL (end run-in) mean ± SD ([2]; BL (end run-in), mITT): 7.8 ± 0.6%; HbA1c, Baseline, Mean (SD) [2, 4]: 7.79 (0.60) %; HbA1c, Baseline, Median [2, 4]: 7.70%; HbA1c, Screening (start run-in) mean ± SD ([2]; Screening (start run-in), mITT): 8.5 ± 0.8%; HbA1c, Week 26 (LOCF), Mean (SD) [2, 5]: 6.96 (0.73) %; HbA1c, Week 26 (LOCF), Median [2, 5]: 7.00%; HbA1c, Week 26 (LOCF) mean ± SD ([2]; Week 26 (LOCF), mITT, Example 2 table): 7.0 ± 0.7%; HbA1c, LS mean treatment difference (lixisenatide vs the labelled arm), co-primary endpoint ([2]; Week 26, mITT, Example 2 table): 0.2^† %; HbA1c, LS mean ± SE change from BL ([2]; Week 26, mITT, Example 2 table): −0.8 ± 0.1%; HbA1c, Change from baseline to Week 26 (LOCF), Mean (SD) ([2]; mITT population): −0.82 (0.78) %; HbA1c, Change from baseline to Week 26 (LOCF), Median ([2]; mITT population): −0.90%; Any symptomatic hypoglycemia: Number of events [3]: 600; Any symptomatic hypoglycemia: Number of events per 100 patient years [3]: 410.4 per 100 patient years; Any symptomatic hypoglycemia: Number of patients with events per 100 patient years [3]: 90.3 per 100 patient years; Documented Symptomatic Hypoglycemia at Week 26, % pts [3]: 44.6 (p = 0.001) % pts; Documented Symptomatic Hypoglycemia at Week 26, No. of events [3]: 595; Documented Symptomatic Hypoglycemia at Week 26, No. of events/pt years [3]: 4.1 events/pt years; Severe Hypoglycemia, no. of pts with events [3]: 0
